One data set concerns T1, VEGF165 (recombinant human vascular endothelial growth factor, 165 aa form) (Homo sapiens), P15692-4.
T1 sequence: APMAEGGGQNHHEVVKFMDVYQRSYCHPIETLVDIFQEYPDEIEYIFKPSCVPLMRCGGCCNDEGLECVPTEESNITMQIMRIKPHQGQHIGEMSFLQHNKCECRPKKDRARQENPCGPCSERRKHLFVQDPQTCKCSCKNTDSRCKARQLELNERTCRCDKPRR
The experiment in a line: filter.
Conditions: not given
In the case of “CTACCTACGATCTGACTAGCACAAGGGGTCCTGNNGAATGGGGGAATACGCTAGCCGAAGCTTACTCTCATGTAGTTCCT [ssDNA b55]”, the Kd worked out at 15 nM.

On to “TGGACTAGAGGNCAGCAAACGATCCTTGGTTCGCGTCC [32t]”, for which the Kd worked out at 17 nM. On the same count and under the same terms, the figure for “ATCCGCCTGATTAGCGATACTGGTGGACTAGAGGNCAGCAAACGATCCTTGGTTCGCGTCCACTTGAGCAAAATCACCTGCAGGGG [ssDNA 32]” is 2 nM; for “CTACCTACGATCTGACTAGCCCACTGCATAGAGATACTGGATTCGACNNNCCAAAGTTTCGGTGCTTAGCTTACTCTCATGTAGTTCCT [ssDNA b96]” it is 1.5 nM. For “CTACCTACGATCTGACTAGCCCACTGCATAGAGAGTCGCAAGACACGGTGCTTTATTCNCCGCTTAGCTTACTCTCATGTAGTTCCT [ssDNA b62]”, the Kd is 2.9 nM.

“CTACCTACGATCTGACTAGCATCCTTCCGAATGGGGGAAATGGCGNCCCAGCTTACTCTCATGTAGTTCCT [ssDNA b89]”: the Kd is 2 nM. Same read-out and setting: then “CTACCTACGATCTGACTAGCTGCNNGCGGGCGGTTCTCCGGATGGGACCATAAGGCTTTAGCTTAGCTTACTCTCATGTAGTTCCT [ssDNA b54]”, with 2.5 nM. For “ATCCGCCTGATTAGCGATACTGGTGTGAACCAGACCTACNGGAACGTTATCGCTTGTGACTTGAGCAAAATCACCTGCAGGGG [ssDNA 44]”, the Kd is 0.4 nM.

For the sequence “CTACCTACGATCTGACTAGCCCACTGCAGAGAGTCAACCTTACGANGCCAAGGTTGCGGTGCTTAGCTTACTCTCATGTAGTTCCT [ssDNA b97]”, the Kd is above 1 nM.

The data set is the same for the next values; noted with them: 2'-NH2 pyrimidines; random pool.
Consider “GGGAGGACGAUGCGGNNNNNNNNNNNNNNNNNNNNNNNNNNNNNNNNNNNNNNNNNNNNNNNNNNCAGACGACUCGCCCGA [Random RNA B (50N7)]”, for which the Kd was 240 nM. The same measure, in the same setting: then “GGGAGACAAGAAUAACGCUCAANNNNNNNNNNNNNNNNNNNNNNNNNNNNNNUUCGACAGGAGGCUCACAACAGGC [Random RNA A (30N8)]”, with 83 nM.

Still in this data set, the particulars now being: clone listed in families 1 and 2.
“CTACCTACGATCTGACTAGCACGCAAGAGAGGTCNCCGAATGGCAGTCTCAGCCGCTAACAGCTTACTCTCATGTAGTTCCT [ssDNA b91]”: the Kd is 3.9 nM.

Still in this data set, the particulars now being: random pool.
For the sequence “GGGAGCUCAGAAUAAACGCUCAANNNNNNNNNNNNNNNNNNNNNNNNNNNNNNUUCGACAUGAGGCCCGGAUCCGGC [random RNA pool (30N)]”, the Kd stood at 200 nM. In the case of “ATCCGCCTGATTAGCGATACTNNNNNNNNNNNNNNNNNNNNNNNNNNNNNNNNNNNNNNNNACTTGAGCAAAATCACCTGCAGGGG [starting random ssDNA pool]”, the dissociation constant Kd is 200 nM.

The test system of another data set is PDGF. The data set can be described thus: filter. The conditions noted are these: specificity.
Sequence “GGAAGCUUGAUGGGUGACACACGUCAUGCCGAGCU [ligand 44t]” displayed a Kd of 600 nM. The same measure, in the same setting: then “GGCCGGUAGUCGCAUGGCCCAUCGCGCCCGG [ligand 100t]”, with 600 nM.

Usually Kd stands for the constant that tells how readily two partners part at equilibrium.

Source of the values: patent US5811533.
